Values belong to the binder of their own block, whether it stands above or below them.
Legend:
30S–IF3DL complex [1] = biological target: 30S–IF3DL complex (UniProt P0A707); assay: stopped-flow fluorescence; pre-steady state; preformed 30S–IF3DL (0.1 µM) mixed with a 10-fold molar excess of IF1 (1 µM); intramolecular FRET of IF3DL; TAKM10 buffer, 25 °C; single exponential fit; apparent rate constant
30S–IF3DL complex [2] = biological target: 30S–IF3DL complex (UniProt P0A707); assay: other fluorescence titration; equilibrium; preformed 30S–IF3DL (0.5 µM) titrated with IF1 (0.1-2 µM); intramolecular FRET of IF3DL; HAKM10 buffer; one-site binding fit
[3] = biological target: 30S subunit (minor ribosomal subunit); assay: stopped-flow fluorescence; pre-steady state; 30S subunits (0.1 µM) mixed with equimolar IF3DL; intramolecular FRET of IF3DL; TAKM10 buffer, 25 °C; fit with two exponential terms; apparent rate constants

- kapp (IF1-dependent FRET change at 1 µM IF1; a step after the initial binding) (30S–IF3DL complex [1]): 0.26 s⁻¹
- Kd (30S–IF3DL complex [2]): 100 nM
B1: Initiation factor IF1 (natural protein)
chain: MAKEDNIEMQGTVLETLPNTMFRVELENGHVVTAHISGKMRKNYIRILTGDKVTVELTPYDLSKGRIVFRSR

- kapp1 (initial bimolecular encounter, 0.1 µM each) [3]: 16 s⁻¹
B2: IF3DL (double-labeled IF3; IF3 E166C with Atto-540Q at the CTD and Atto-488 at the NTD) (natural protein)
chain: MKGGKRVQTARPNRINGEIRAQEVRLTGLEGEQLGIVSLREALEKAEEAGVDLVEISPNAEPPVCRIMDYGKFLYEKSKSSKEQKKKQKVIQVKEIKFRPGTDEGDYQVKLRSLIRFLEEGDKAKITLRFRGREMAHQQIGMEVLNRVKDDLQELAVVESFPTKICGRQMIMVLAPKKKQ
modifications: Atto-540Q maleimide on the recombinant cysteine 166 (E166C, CTD); Atto-488 maleimide on the natural cysteine 65 (NTD)

Reference: paper PMC5187519
